{"source": "paper PMC6547725", "target": "KRAS (aa 1–170, Homo sapiens), wild type (Homo sapiens) (UniProt P01116)"}
{"substance": "RasGAP (aa 722–1056, Homo sapiens) (domain or fragment)", "values": [{"measurement": "GTPase activity of KRAS wild type (GTP hydrolysis over time, HPLC) with 0.25 μM RAS-GAP; at 2.5 μM and 25 μM too fast to be resolved", "value": 3.5, "unit": "fold"}]}
